Publication PMC10470007 (The Journal of Biological Chemistry, 2023)

Target: T1, 1N3R Tau protein isoform with a V5 insertion between E73 and A74 (V5 epitope tag (simian virus 5 P/V …, strain, labeled with Alexa Fluor 488 NHS (succinimidyl) ester, 2:1 NHS Alexa:Tau-V5))
T1 construct: also called Tau-V5; labeled Tau-V5
Test: flow cytometry on cells
Settings: one partner purified

B1: NbV5-AGAP2-Halo-myc (VHH)
VHH: EVQLQASGGGFVQPGGSLRLSCAASGTTSFGDTMGWFRQAPGKEREFVSAISRQGDKHYYADSVKGRFTISRDNSKNTVYLQMNSLRAEDTATYYCAEWMNTRREFITPYWGQGTQVTVSS
notes: also called NbV5 (yeast surface display)
  Kd: 29 nM
